One experiment concerns the target Insulin. The experiment can be described thus: polyreactivity ELISA on insulin coat, 100 nM. As to the method: Non-specific DNA and Insulin binding is predictive of poor pharmacokinetics (PK). An immunosorbent plate was coated with dsDNA at a concentration of 1 μg/mL or Insulin at 5 μg/mL in PBS pH 7.4, 75 ul/well, and incubated overnight at 4° C. Wells were washed with PBS pH 7.4 containing 0.05% Tween-20 (wash buffer) three times, and then blocked with 200 ul/well 1% BSA in PBS pH 7.4 (block buffer) for two hours at room temperature. After three washes with wash buffer, TAs and controls Lenzilumab and Elotuzumab were diluted to 100 nM in PBS containing 1% BSA and 0.05% Tween-20 (assay buffer). The diluted material was added to the DNA/insulin coated plate at 75 ul/well for 1 hour at room temperature. After three washes with wash buffer, a donkey anti-human FcY HRP conjugated polyclonal antibody, diluted to 1:5000 in assay buffer, was added to the plate at 75 ul/well for 1 hr at room temperature. After three washes with wash buffer and three washes with wash buffer (with no tween-20), the assay was developed with TMB, and stopped with 1N HCL. OD 450 nm was measured. The experiment included appropriate controls for non-specific binding of test articles to the plate/block in the absence of DNA or insulin.
(In general: In an ELISA, binding on a coated surface is turned into a signal by an enzyme label.)

The target in the next experiment is T1, human MAdCAM (human, UniProt Q13477 19-317, limits assumed).
T1 construct: also called huMAdCAM; human MAdCAM-1
T1 sequence (looked up): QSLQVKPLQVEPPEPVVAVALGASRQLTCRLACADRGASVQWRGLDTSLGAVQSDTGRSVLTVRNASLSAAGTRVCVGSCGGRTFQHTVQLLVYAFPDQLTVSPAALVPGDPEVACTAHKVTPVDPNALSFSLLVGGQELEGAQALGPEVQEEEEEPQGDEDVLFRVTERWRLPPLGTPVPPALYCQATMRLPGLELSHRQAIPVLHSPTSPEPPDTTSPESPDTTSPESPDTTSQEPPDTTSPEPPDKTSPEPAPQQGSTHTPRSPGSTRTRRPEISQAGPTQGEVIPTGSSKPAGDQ
The experiment can be described thus: BLI (Octet), binder on anti-human Fc tips.

The next experiment deals with T2, mouse MAdCAM (mouse, UniProt Q61826 22-365, limits assumed).
T2 construct: also called mouse MAdCAM-1; muMAdCAM
T2 sequence (looked up): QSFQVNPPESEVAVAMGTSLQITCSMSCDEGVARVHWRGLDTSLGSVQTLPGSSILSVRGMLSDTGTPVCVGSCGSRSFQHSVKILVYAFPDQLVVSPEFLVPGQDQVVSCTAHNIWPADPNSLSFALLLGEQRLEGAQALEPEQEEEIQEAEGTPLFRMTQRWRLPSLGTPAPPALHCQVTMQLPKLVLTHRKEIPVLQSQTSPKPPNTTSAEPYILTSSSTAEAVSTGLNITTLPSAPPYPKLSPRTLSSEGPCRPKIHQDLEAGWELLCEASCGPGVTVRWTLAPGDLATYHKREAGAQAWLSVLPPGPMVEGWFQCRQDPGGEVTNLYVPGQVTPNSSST
The experiment can be described thus: BLI (Octet), binder on anti-human Fc tips.

In the next experiment the target is T3, cyno MAdCAM (cynomolgus).
T3 construct: also called cynomolgus MAdCAM
The experiment can be described thus: BLI (Octet), binder on anti-human Fc tips. On the technique in general: Biolayer interferometry detects binding as a change in optical thickness at a sensor tip.

Residue numbers refer to the chain shown, from its start.

The term Kd denotes the constant that tells how readily two partners part at equilibrium. The low end stands for higher affinity, the high end for lower affinity. For orientation: koff means a measure of how fast the partners let go of each other. A high value points to fast dissociation. A word on the kon: it is the rate constant with which the complex forms.

Insulin, sequence (P01308 25-54, chain 1 of 2): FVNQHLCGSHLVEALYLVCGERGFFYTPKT
Insulin, sequence (P01308 90-110, chain 2 of 2): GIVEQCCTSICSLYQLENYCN

B1: MIAB133 (antibody, V domains shown)
VH: EVQLLESGGGLVQPGGSLRLSCAASGFTFSSFWMHWVRQAPGKGLEWISYISGDSGYTNYADSVKGRFTISRDNSKNTLYLQMNSLRAEDTAVYYCARDRPYYYYMDVWGKGTTVTVSS
VL: DIQMTQSPSSLSASVGDRVTITCRASQSVSRSLAWYQQKPGKAPKLLIYAASSLQSGVPSRFSGSGSGTDFTLTISSLQPEDFATYYCQQYKSYPVTFGQGTKVEIK
notes: tested with human Fc; also called MIAB133-001
The molecule B1 yielded an Insulin polyreactivity score with Insulin of 13.2. In the experiment with human MAdCAM, this molecule had a Kd of 20 nM and a koff of 0.0113 s⁻¹.

B2: MIAB153 (antibody, V domains shown)
VH: B1 VH with S31D
VL: B1 VL with R31S, A34N
notes: tested with human Fc
Turning to B2, the Insulin polyreactivity score with Insulin was 2.46. In the experiment with human MAdCAM, binding was put at a Kd of 8360 nM, the koff was 0.543 s⁻¹ and the association rate constant (kon) stood at 64800 M⁻¹ s⁻¹.

B3: MIAB149 (antibody, V domains shown)
VH: B1 VH with S31D
VL: B1 VL with V29I, R31S
notes: tested with human Fc; also called MIAB149-001
Regarding B3, in the experiment with Insulin, the Insulin polyreactivity score came to 3.53. In the experiment with human MAdCAM, this molecule came in with a Kd of 68.8 nM, a koff of 0.0259 s⁻¹ and a kon of 376000 M⁻¹ s⁻¹.

B4: MIAB145 (antibody, V domains shown)
VH: B1 VH with S31D
VL: B1 VL with V29I
notes: tested with human Fc; also called MIAB145-001
The molecule B4 gave an Insulin polyreactivity score in the experiment with Insulin of 4.58. Moreover, in the experiment with human MAdCAM, binding was put at a Kd of 22.2 nM, the off-rate constant (koff) worked out at 0.00897 s⁻¹ and the kon stood at 405000 M⁻¹ s⁻¹.

B5: MIAB148 (antibody, V domains shown)
VH: B1 VH with S31D
VL: B1 VL with A34N
notes: tested with human Fc
B5: the Insulin polyreactivity score with Insulin was determined as 3.63. In the experiment with human MAdCAM, this molecule showed a Kd of 2690 nM, a koff of 0.314 s⁻¹ and an association rate constant (kon) of 117000 M⁻¹ s⁻¹.

B6: MIAB147 (antibody, V domains shown)
VH: B1 VH with S31D
VL: B1 VL with S32Y
notes: tested with human Fc; also called MIAB147-001
As to B6, the Insulin polyreactivity score with Insulin is 3.81. Moreover, the binding result in the experiment with human MAdCAM is listed as “no binding (tested: 200 nM)”.

B7: MIAB136 (antibody, V domains shown)
VH: B1 VH with F32Y, W33A, H35S
VL: B1 VL
notes: tested with human Fc
On to B7, for which, in the experiment with Insulin, the Insulin polyreactivity score was 75.4. In addition, the binding result with human MAdCAM is “no binding (tested: 150 nM)”.

B8: MIAB170 (antibody, V domains shown)
VH: B1 VH with S31D, Y105W
VL: B1 VL
notes: tested with human Fc
Molecule B8 gave an Insulin polyreactivity score with Insulin of 4.73. The binding result in the experiment with human MAdCAM is “no binding (tested: 1 µM)”.

B9: MIAB146 (antibody, V domains shown)
VH: B1 VH with S31D
VL: B1 VL with R31S
notes: tested with human Fc; also called MIAB146-001
With B9, in the experiment with Insulin, the Insulin polyreactivity score stood at 2.61. Besides, in the experiment with human MAdCAM, binding was characterised by a dissociation constant (Kd) of 43.8 nM, the koff is 0.0197 s⁻¹ and the on-rate constant (kon) came to 449000 M⁻¹ s⁻¹.

B10: MIAB137 (antibody, V domains shown)
VH: B1 VH with S31D, I48V, Y50A, D54S, S55G, Y57S, N59Y
VL: B1 VL
notes: tested with human Fc
As to B10, the Insulin polyreactivity score with Insulin came out at 67.3. Besides, in the experiment with human MAdCAM, the Kd was found to be 203 nM, the koff came to 0.082 s⁻¹ and the kon was 404000 M⁻¹ s⁻¹.

B11: MIAB151 (antibody, V domains shown)
VH: B1 VH with S31D
VL: B1 VL with V29I, A34N
notes: tested with human Fc
The molecule B11 came in with an Insulin polyreactivity score with Insulin of 3.63. In the experiment with human MAdCAM, this molecule registered a Kd of 2960 nM, a dissociation rate constant (koff) of 0.292 s⁻¹ and a kon of 98700 M⁻¹ s⁻¹.

B12: MIAB12 (antibody, V domains shown)
VH: EVQLLESGGGLVQPGGSLRLSCAASGFTFDDYAMHWVRQAPGKGLEWVASITSSSAFIDYADSVKGRFTISRDNSKNTLYLQMNSLRAEDTAVYYCARERVDWNSYFDLWGQGTLVTVSS
VL: EIVMTQSPATLSVSPGERATLSCRACPGISNSYLAWYQQKPGQAPRLLIYGASTRATGIPARFSGSGSGTEFTLTISSLQSEDFAVYYCQQYYTYPPTFGQGTKVEIK
notes: tested with human Fc
Regarding B12, the results for the Kd in the experiment with mouse MAdCAM, in the experiment with cyno MAdCAM and with human MAdCAM were 77.5 nM, 19.5 nM and 19.3 nM, respectively.

B13: MIAB25 (antibody, V domains shown)
VH: B12 VH with T28I, N104F
VL: EIVMTQSPATLSVSPGERATLSCRASQSVSNNLVWYQQKPGQAPRLLIYDASTRATGIPARFSGSGSGTEFTLTISSLQSEDFAVYYCQQYSHWPPTFGQGTKVEIK
notes: tested with human Fc
Take B13: the Kd is 131 nM with mouse MAdCAM, 60.8 nM in the experiment with cyno MAdCAM and 46.9 nM with human MAdCAM.

B14: MIAB208 (antibody, V domains shown)
VH: B12 VH
VL: B13 VL with S30Y, N31S, V34A, S92H, H93I
notes: tested with human Fc
Turning to B14, the Kd with mouse MAdCAM came to 75.1 nM; with cyno MAdCAM it was 142 nM; in the experiment with human MAdCAM, 20.2 nM.

B15: MIAB13 (antibody, V domains shown)
VH: B12 VH with D102L
VL: B13 VL with S28N, S30N, V34A, S52T, S92Y, P96Q
notes: tested with human Fc
In the case of B15, the Kd with mouse MAdCAM was 6.6 nM; with cyno MAdCAM it was 33.4 nM; with human MAdCAM, 45.9 nM.

B16: MIAB123 (antibody, V domains shown)
VH: B12 VH with T28I, N104F
VL: B12 VL with C26S, P27Q, G28S, I29V, S32N, A35V, G51D, Y93S, T94H, Y95W
notes: tested with human Fc
For the molecule B16, the Kd with mouse MAdCAM is 164 nM; with cyno MAdCAM, 77.9 nM; in the experiment with human MAdCAM it was 39.7 nM.

B17: MIAB206 (antibody, V domains shown)
VH: B12 VH with N104Y
VL: B13 VL with S30Y, N31S, V34A, D50R, S92H, H93I
notes: tested with human Fc
Consider B17, for which the dissociation constant (Kd) in the experiment with mouse MAdCAM was found to be 7.6 nM; with cyno MAdCAM, 89.5 nM; in the experiment with human MAdCAM, 74.3 nM.

B18: MIAB209 (antibody, V domains shown)
VH: B12 VH
VL: EIVMTQSPATLSVSPGERATLSCRASQSVYSNYLAWYQQKPGQAPRLLIYRASTRATGIPARFSGSGSGTEFTLTISSLQSEDFAVYYCQQYSHWPPTFGQGTKVEIK
notes: tested with human Fc
In the case of B18, the dissociation constant (Kd) in the experiment with mouse MAdCAM was found to be 35.2 nM; with cyno MAdCAM it was 99 nM; with human MAdCAM it was 61.1 nM.

B19: MIAB26 (antibody, V domains shown)
VH: B12 VH
VL: B13 VL with S30Y, N31S, V34A, D50R, S92H, H93I
notes: tested with human Fc
Turning to B19, the dissociation constant (Kd) in the experiment with mouse MAdCAM is 9.9 nM; in the experiment with cyno MAdCAM, 78.5 nM; with human MAdCAM, 49.1 nM.

B20: MIAB122 (antibody, V domains shown)
VH: B12 VH with T28I, N104F
VL: B18 VL with S26C, Q27P, Y30S, S31N, A35V, R51D
notes: tested with human Fc
For B20, the Kd is 130 nM with mouse MAdCAM, 68.5 nM with cyno MAdCAM and 48.2 nM with human MAdCAM.

B21: MIAB205 (antibody, V domains shown)
VH: B12 VH with N104F
VL: B13 VL with S30Y, N31S, V34A, D50R, S92H, H93I
notes: tested with human Fc
Take B21: the figures for the Kd with mouse MAdCAM, in the experiment with cyno MAdCAM and with human MAdCAM were 42.2 nM, 117 nM and 56.3 nM, respectively.

B22: MIAB121 (antibody, V domains shown)
VH: B12 VH with T28I, N104F
VL: B13 VL with S26C, Q27P
notes: tested with human Fc
With B22, the figures for the Kd with mouse MAdCAM, in the experiment with cyno MAdCAM and in the experiment with human MAdCAM were 117 nM, 92 nM and 50.4 nM, respectively.

B23: MIAB207 (antibody, V domains shown)
VH: B12 VH
VL: B13 VL with S30Y, N31S, D50R, S92H, H93I
notes: tested with human Fc
As for B23, the Kd with mouse MAdCAM was determined as 24 nM; in the experiment with cyno MAdCAM it was 73.7 nM; in the experiment with human MAdCAM it was 83.5 nM.

These data come from patent US20240010722A1 (published 2024).
